According to PMC3064264 (The Journal of neuroscience : the official journal of the …, 2010):

Biological target: the molecule itself
Test: non-reducing SDS-PAGE and Western blot

B1: kinesin-12 (rat) (natural protein, UniProt Q7TSP2 1-1385, looked up)
chain: MAPGCKSELRNVTNSHSNQPSNEDDAIKVFVRIRPAEEGARSADGEQSLCLSVLSQTALRLHSNPDPKTFVFDYVAGMDTTQESVFSTVAKSIVESCMSGYNGTIFAYGQTGSGKTFTMMGPSDSDNFSHNLRGVIPRSFEYLFSLIDREKEKAGAGKSFLCKCSFIEVYNEQIYDLLDSASVGLYLREHIKKGVFVVGAVEQVVASAAEAYQVLSRGWRNRRVASTSMNRESSRSHAVFTITIESMEKSSEAVNIRTSLLNLVDLAGSERQKDTHAEGMRLKEAGNINRSLSCLGQVITALVDVGNGKQRHVCYRDSKLTFLLRDSLGGNAKTAIIANVHPGSRCFGETLSTLNFAQRAKLIKNKAVVNEDTQGNVSQLQAEVKRLREQLSQFTSGQLTPGSSLARDKEKANYMEYFLEAMLFFKKSEQEKKSLVEKITQLEDLTLKKEKFIQSNKMIVKFREDQIMRLERLQKEARGSFLPEEQDRLLSELRDEIRTLREQVEHHPRLAKYAMENHSLREENRKLKLLAPVKRAHELDAQAIARLEQAFSEVSSTETNDKGLQGLPPKAIKEPSFFTSTEKLKVQLLQIQTELNNSKQEYEEFKELTRKKQLELESELQSLQKANLNLENLLEATKVCKRQEVSQLNKIHAETLKIITTPTKAYQLCSRLVPKSSPEVGSFGFLRSQSAPDNDILNEPVPPEMSEQALEAISEELRTVQEQLSVLQVKLDEEEHKNLKLQQNVDRLEHHSTQMQELFSSERSDWSKQQQDYLTQLSDLEKQLQDAQTKNDFLKCEVHDLRIVLNSADKELSLVKLEYSTFKESQEKELSQLSERHVQVQLQLDNARLENEKLLESQACLQDSYDNLQEVMKFEVDQLSKNLQNCKQENETLKSDLHNLVELFEAEKERNNKLSLQFEEDKENSSKEILKALETVRQEKQEEMARCEKQMAKVQELEESLLAAENVVSCLEKSRESDKELVTNLMNQIQELRTSAGEKSEAIDTLKQELQDISCKYTAAVADKEESKELIRRQEVDILELKETLRLRILSEDIERDMLCEDLAHATEQLNMLTEASKKHSGLLQSAQEELTKKEALIQELQHKLNQEKEEVEQKKSEYNLKMKQLEHVMGSAPEYPQSPKTPPHFQTHLAKLLETQEQEIEDGRASKMSLQHLVTKLNEDREVKNAEILRMKDQLCEMENLRLESQQLRERTWLLQTQLDDMKRQGESSSQSRPDSQQLKNEYEEEIIRERLAKNKLIEEMLKMKTDLEEVQSALDSKEKFCHRMSEEVERTRTLESRAFQEKEQLRSKLEEMYEERERTCQEMEMLRKQLEFLAEENGKLIGHQNLHQKIQYVVRLKKENIRLAEETEKLRAENVFLKERKKE
- stoichiometry N: 2
